Measured values published in paper PMC8017925, “Structural basis for differential recognition of phosphohistidine-containing peptides by 1-pHis and 3-pHis monoclonal antibodies” (Proceedings of the National Academy of Sciences of the …, 2021).

Tested on: SCS pHis peptide
Test: BLI of pHis Fabs with phosphorylated SCS peptide
Assay type: binding
Conditions: GpHAGAI motif
Method: Next, we turned to further analyze the peptide selectivity using BLI experiments. Nine amino acid peptide sequences from proteins known to undergo histidine phosphorylation were selected and synthesized (SI Appendix, Table S2). The biotinylated peptides ACLY, NM23, SCS, and Common-His were chemically phosphorylated using phosphoramidate (8 h at 23 °C), and affinity-purified using immobilized 1-pHis IgGs or 3-pHis IgGs, as described above. BLI signal intensity was used to assess peptide binding to the Fabs. […]
The binding kinetics of pHis Fabs with the peptides (pTza and pHis) were evaluated with an Octet RED96e (FortéBio). […] The biotinylated pTza peptides or pHis peptides (20 nM) with and without phosphoramidate treatment were coated onto these streptavidin biosensors and analyzed for their binding to varying concentrations of the pHis Fabs with an association time of 120 s and dissociation time of 200 s. […] The data were analyzed using the Octet software (FortéBio) and the rates of association and dissociation were obtained by global fitting data to the 1:1 Langmuir interaction model. […]
1H NMR of ACLYana peptide. A mixture of 5 mM ACLYana peptide and 250 mM phosphoramidate in 20 mM d18-Hepes, pH 8.0, 50 mM NaCl in D2O was incubated at 23 °C and monitored over the course of 29 h. […]

B1: SC44-8: Fab of rabbit 3-pHis-specific monoclonal antibody with proclivity for GpHAGA motif (antibody, V domains shown)
VH: QSVKESGRGLVQPGGSLTLTCTASGFSIDSYGFSWVRQAPGKGLEHIGYLTAGGRAFYASWAKSRSTITRNTNENTVTLKMTSLTAADTATYFCAKLGSGNPVAIWGPGTLVTVSS
VL: QVLTQTPSFTSAAVGGTVTINCQSSQSVWRNKNLAWYQQKPGQPPKRLIYAIATLDSGVPSRFSGSGSGTQFTLTISDVQCDDAATYYCVGHYGSENDAYYAFGGGTEVVVK
BLI signal with SCS peptide: 0.5 nm
